Experimental findings from patent US20030232757A1 are described below.

The experiment deals with T1, CryET39 crystal protein (Bacillus thuringiensis delta-endotoxin, approximately 44-kDa) (Bacillus thuringiensis (strain EG5899)).
T1 sequence: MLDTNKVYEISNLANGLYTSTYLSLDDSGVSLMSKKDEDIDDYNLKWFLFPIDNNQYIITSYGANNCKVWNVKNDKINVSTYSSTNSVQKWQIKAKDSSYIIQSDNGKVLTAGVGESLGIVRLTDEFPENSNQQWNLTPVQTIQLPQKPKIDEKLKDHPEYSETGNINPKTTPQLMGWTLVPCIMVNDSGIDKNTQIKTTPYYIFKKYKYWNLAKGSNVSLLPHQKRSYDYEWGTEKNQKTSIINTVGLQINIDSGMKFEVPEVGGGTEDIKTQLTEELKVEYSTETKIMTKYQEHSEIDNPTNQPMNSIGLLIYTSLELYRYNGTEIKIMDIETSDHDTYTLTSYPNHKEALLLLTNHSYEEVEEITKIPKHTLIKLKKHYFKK
Briefly: cell-based or functional assay.

B1: CryET74 crystal protein (Bacillus thuringiensis delta-endotoxin, approximately 13-15-kDa) (protein)
chain: MSAREVHIEINNKTRHTLQLEDKTKLSGGRWRTSPTNVARDTIKTFVAESHGFMTGVEGIIYFSVNGDAEISLHFDNPYIGSNKCDGSSDKPEYEVITQSGSGDKSHVTYTIQTVSLRL
Take B1: the Percent Control (WCRW larval mortality corrected for diluent control); 50:50 mixture EG11935 (CryET74) + EG11937 (1) (CryET39), dose 80 µg/well (percent control) is 100; the Percent Control (WCRW larval mortality corrected for diluent control); 50:50 mixture EG11935 (CryET74) + EG11937 (1) (CryET39), dose 160 µg/well (percent control) came out at 100; the Percent Control (WCRW larval mortality corrected for diluent control); 50:50 mixture EG11935 (CryET74) + EG11937 (2) (CryET39), dose 80 µg/well (percent control) came out at 100; the Percent Control (WCRW larval mortality corrected for diluent control); 50:50 mixture EG11935 (CryET74) + EG11937 (2) (CryET39), dose 160 µg/well (percent control) amounted to 93.3. Also, the Percent Control (WCRW larval mortality corrected for diluent control); EG11936 (CryET39 + CryET74 co-expressed), dose 80 µg/well (percent control) was determined as 100 and the Percent Control (WCRW larval mortality corrected for diluent control); EG11936 (CryET39 + CryET74 co-expressed), dose 160 µg/well (percent control) was 100.
